Here are results for 19 sequences from the DeepSol protein solubility set.

This data set can be described thus: soluble on expression in E. coli; label from the status in PepcDB or PDB records.
In the case of “MIAARQVSKPIADAVLRYGKDHPVFRNKLLLPIGRGLVRFTSRLRMKRLGLGEPISQAPISESAALEQASDFVQQLVLFSYSVGVFAGYYFYTKMTTPESLKIEDYEEFKQQQERAIKELRLQVESLEQRLAAQQKRNFFSQLGFSKENGDESPPKPSQQAPPPEKPSEEKKPATESLKQRFQRISSLPIDAAASLILDDEEYLVVRRGSSVGIELSVNFAARGDRLRYRIPSPKLRESCAQMALKEAACHVIGAKDRSRFRYVNS”, the “soluble on expression in E. coli” value is given as “not soluble”. As for “MIALFSVLIAFLTPQANAVISGELNCTTYNGTAFVYTPSATACSNAISDSSCAALYPASDPATGYPAPGNDVERPFACYTTATPTPAPVVPDMRSAALKNCARTCGLCCKTADFDCPNVQFPRLTCSTITNEQCRSSVWRTIIATDCPSACGFCNQGGCVDGVMDCANDLSICNSVGMQEFVNQYCQRTCNRCSSSTAATGTGGSCGGRYIADSSTACAAWKLNGFCTNTFYTAAQRRSYCATTCSLC”, the “soluble on expression in E. coli” value is given as “not soluble”. For “MIAMDIREIGLRLVGEAIKAADPYRAVLNAVKVSDDKIIVQGKEFEIKGKVYVIALGKAACEMARAIEDILDVEDGVAVTKYGYGKELKRIKVIEAGHPIPDEKSILGAKEALSILNRARENDIVFILISGGGSALFELPEEGISLEDLKLTTDLLLKSGAKIHEINTVRKHISKVKGGKLAKMIKGTGIVLIISDVVGDNLEAIASGPTVKDPTTFEDAKRILELYDIWEKVPESVRLHIERGLRGEVEETLKEDLPNVHNFLIASNSISCEAIAREAQRLGFKAYIMTTTLEGEAKDAGLFIGSIVQEIAERGRPFEPPVVLVFGGETTVTIEGKGGKGGPNQEIALSATRKISDLEALIVAFDTDGTDGPTDAAGGIVDGTTYKKLREKGIDVEKVLKEHNSYEALKKVGGLLFTGPTGTNVNSIVIAIVTSKRGRT”, the “soluble on expression in E. coli” value is listed as “soluble”.

Regarding “MIAQLQKSLIQQNSTFEKKNNVEVAPIAKISLKDRLASLNNSAEQWKSRPERQPAVQQRRTSANVLQDLPIFQRAQQLHQQQQRPQSFPVVQEKPCDITSGLKKFFGSNPTTSGASSSLPKISEITASNDIDLDAISSKATPVLKTVTRPRAPNRKKSDKSSTFDERIRLDAVKIDEEAFAVVEEEPEKLETQEQAIAAIQGAKQLLKSPTKVSPYPDVMLIQVRGSKNVDVRLVAPAMSSVHEVACFVVVHQKHLMKYEGLYSNILEKTKASQLCIEILGKSDLNCTAESIVTVTGASRSTLSKLLFCSENSESSSENNNYHQASSVEPFETTVAKLNLVLRIAGDNTAETCSRRERLSYEIMKPSEVLIFDFGSEIYVWTGRYSNKVSSAYAQEYAKQLMKKPVKNGKFILGDAESIDQDGRPEWTLSRKIHQGVLDTLFKAKFSDWPETREVLTTCKPRALISKKNPEVKTYEDVKVVNQDDEVADLVERMLQEQELDPILVLEDQEIDRKIHDVISEDRSLWVLRGEVLQSIEEFTEHFDSRRCYVLRWKYRIQKSGVRRIKTGKEEERETGRSRIAFWYWLGEHTTPKQHGLCALRIKEIDRDNSPRIRIADGNEPALFLALFDGKFMVSSDISEMKPLRRYVVIGANSRETSLREIDDLNSPLRSHAAYIEVEKDILGPSSVVCGANCTEDQVHFVLAHAEYMRQKAGVKGNSAEIEVEGDKKSRSWVNSNGRKRAMRVWRLFDNESEQVNHLSGHKNCAFTFSQQVLKETILIDVGDALWLWSEEVITTFALKVAEKYWKDRSGPAKVVYKGAEPEQFKGLFMKWEMFEVEDDKPSDPPRDVSDLLKERCRTFSLEELKERTSLPAGMDMRRLESYLTDDDFMKVFKIERSEFYAQKTWKQNDARKRVGLF”, the “soluble on expression in E. coli” value is given as “not soluble”. Regarding “MIATPNILAPLHDILPLTKGEARISFIGSRSFLLEAPGEFDLPAQRWIWALSQSVSNWPDVAEIIPGMTNLLTIFKETPDDPDSVVGRLRDAWNSAQSLDLTGKTIEIPVHYGGEYATDLAAICDFSGLSDREVVRLHHEATYRVFALGSAPGFGYLHGLDPRIYMPRKTVPSIRMEKGCVTIGGMQTGVAMLTGPNGWNSIGYADLQMFDPESSVPALMAPGDIVRFVPARIELLEHHHHHH”, the “soluble on expression in E. coli” value is listed as “not soluble”.

Regarding “MIAVVIPAHNEARRLGRCLRAVLVAARQAQQAGLHVEVLVVLDRCSDGSAAVARRFGVHTLEVDAGNVGMARRVGAAHMVERGATWLACTDADSRVPAHWLLSQLACSAEVVCGTVHVEYWQPWQTAALRKLYQSRYQACEGHRHVHGANLGVCADAYERVGGFQPLAAHEDVQLVSDLQASGAQIVWTARHSVATSSRRDSRAREGFGDYLAGLQAQSLEHHHHHH”, the “soluble on expression in E. coli” value is given as “not soluble”.

Consider “MICLDCDDLFDTWRLQARWLLSHEIDPSQVSWKSPDAADLFGSEEQYPEQSGPFQARVPLELLQLLQSTSRYRGEQRWSLLYEVLWRVTHGDRTAMMAGDKLGSELHRRLKAVRREAHHLHAFLRFVALPPADNDAAIMRPQYVAWHEPAHDILHSASEHFIGRMGQHRWMIATPQDGVYYDGKQLIHERRCPEAWQTMARQVEDPHGELWLTYYSHIFNPARLNPKVMEGHFPSRFWKNLPE”, for which the “soluble on expression in E. coli” value is recorded as “not soluble”. To “MIDFNQLDDLARRLSDLVPPGLRQSREELQSTFKGALQAGLGKLDLVTREEFDVQRAVLLRTREKLDALEQTVAALEARSGNAPPTSPTP” belongs “not soluble”; to “MIDHQHLRLFQFCDSQFPTGAFSHSFGLETYIQRETVHDTETFIKWLHLFINEQLTYSDGIAMRIVYHALINNDKDKILDINQKLFVQNLPKETRIGAKQMGTRMVKLALDLYDSEWIQWYYNQMKNNKIKLHPAVCFTMLGHFLGVDVESIIDYYLYQNISSLTQNAVRAIPLGQTAGQQVVTEMIAHIEKTRNHILELDEIDFGMTAPGLELNQMEHENVHVRIFISLEHHHHHH”, “not soluble”.

Take “MIDLLQADGNALPSAVKLAYSPASKTFESYRVMTQVHTNDATKKVIVKLADTPQLTDVLNSTVQMPISVSWGGQVLSTTAKEFEAAALGYSASGVNGVSSSQELVISAAPKTAGTAPTAGNYSGVVSLVMTLGSDNKQVEKNITVTASVDPVIDLLQADGNALPSAVKLAYSPASKTFESYRVMTQVHTNDATKKVIVKLADTPQLTDVLNSTVQMPISVSWGGQVLSTTAKEFEAAALGYSASGVNGVSSSQELVISAAPKTAGTAPTAGNYSGVVSLVMTLGSDNKQVEKNITVTASVDPVIDLLQADGNALPSAVKLAYSPASKTFESYRVMTQVHTNDATKKVIVKLADTPQLTDVLNSTVQMPISVSWGGQVLSTTAKEFEAAALGYSASGVNGVSSSQELVISAAPKTAGTAPTAGNYSGVVSLVMTLGSDNKQVEKNITVTASVDPVILEHHHHHH”: the “soluble on expression in E. coli” value was “soluble”.

Consider “MIDLYFAPTPNGHKITLFLEEAELDYRLIKVDLGKGGQFRPEFLRISPNNKIPAIVDHSPADGGEPLSLFESGAILLYLAEKTGLFLSHETRERAATLQWLFWQVGGLGPMLGQNHHFNHAAPQTIPYAIERYQVETQRLYHVLNKRLENSPWLGGENYSIADIACWPWVNAWTRQRIDLAMYPAVKNWHERIRSRPATGQALLKAQLGDERSDS”, for which the “soluble on expression in E. coli” value is on record as “soluble”. For the sequence “MIDMALTDDIILLGQVPLFAGFSDDQLRLIAFGAERRRVSAGQILFREHSPAECAFAVTSGHFELFTAGRDGKPLLQATPGKGALLSELALFTLCERKFTAVAVEDSEVIRITRILFHRLVEEFPEVADIVSARIRDNIAALAAGAARLQNRFV”, the “soluble on expression in E. coli” value is “not soluble”. To “MIDMTMKVGFIGLGIMGKPMSKNLLKAGYSLVVADRNPEAIADVIAAGAETASTAKAIAEQCDVIITMLPNSPHVKEVALGENGIIEGAKPGTVLIDMSSIAPLASREISEALKAKGIDMLDAPVSGGEPKAIDGTLSVMVGGDKAIFDKYYDLMKAMAGSVVHTGEIGAGNVTKLANQVIVALNIAAMSEALTLATKAGVNPDLVYQAIRGGLAGSTVLDAKAPMVMDRNFKPGFRIDLHIKDLANALDTSHGVGAQLPLTAAVMEMMQALRADGLGTADHSALACYYEKLAKVEVTR” belongs “not soluble”. Regarding “MIDTTVFQNKTAVYYTLGCKLNFSETSTIGKILREAGVRTARKGEKADICVVNTCSVTEMADKKCRQAIHRLVKQHPGAFVVVTGCYAQLKPGDVAKIKGVDVVLGAEQKGDLLQYLGDLHKHEEGEAFTTTTKDIRSFSPSCSRGDRTRFFLKVQDGCDYFCSYCTIPFARGRSRNGTVASMVEQARQAAAEGGKEIVLTGVNIGDFGKTTGETFFDLVKALDQVEGIERYRISSIEPNLLTDEIIEFVSRSRRFMPHFHIPLQSGCDEVLKLMRRRYDTALFASKVKKIKEVMPDAFIGVDVIVGTRGETEEYFEQAYQFISGLDVTQLHVFSYSERPGTQALKIDYVVSPEEKHQRSQRLLTLSDEKTRAFYTRHIGQTMQVLMEKSKAGTPMHGFTANYIRVEVENDESLDNQMINVRLGEFNEDMTALKGTILMNYEV”, the “soluble on expression in E. coli” value is “not soluble”. Take “MIDTVSVVLFSKKSHIKIARSVLRDFLQMHESSDSLIVDMEIVLGEILANVIKHTYKNDETKRIIVSYTLKDEVFHMLVRDFGPPVDPTRLKPMPPDLENPREGGYGFYIISRVTDEFRVRPLRNGNLTVVKKKLR”: the “soluble on expression in E. coli” value is recorded as “soluble”. To “MIDVKSIILIVLDGLGDRPGEILGYRTPLQAAYHPNMNRMASLGMTGLMHPISPGIRSGSDTSHMSLLGYDPRVYYQGRGPFEALGLHMDMKPGDLAFRANFATNRDGKIIDRRAGRINAGNDQLASAISIDIGNYKFRVKSGVEHRAALVVSGPNLSDKISDSDPHSEGKPPEPIRPLDPSADSTAKIMNEYLKRIREILRDHPVNVEREKNGQIPGNELLIRSAGKVPDIPSFQEKNGITGACVVGSPWLKGLCRLLGMAVIDVPGAAGTINSNYTGKIKTAIDASKRYDFVLVNIKATDVAGHDGDYELKRRVIEDIDIAMEPLLGQSDRIVVAITGDHSTPCSVKDHSGDPVPIVFYTDGIYSDDVKLFDEVSAMKGALRITTQDVLNILMEMAGRAEKFGS” belongs “not soluble”. As to “MIEFRQVSKTFNKKKQKIDALKDVSFTVNRNDIFGVIGYSGAGKSTLVRLVNHLEAASNGQVIVDGHDITNYSDKMMRDIKKDIGMIFQHFNLLNSATVFKNVAMPLILSKKSKTEIKQRVTEMLEFVGLSDKKDQFPDELSGGQKQRVAIARALVTNPKILLCDEATSALDPATTASILTLLKNVNQTFGITIMMITHEMRVIKDICNRVAVMEKGKVVETGTVKEVFSHPKTTIAQNFVSTVIQTEPSTSLIRRLNDEQVGDFKDYKIFVEETQVTQPIINDLIQICGREVKILFSSMSEIQGNTVCYMWLRFNMDQQFEDTAINQYFKEKNIQFEEVH”, the “soluble on expression in E. coli” value is “not soluble”. For “MIEFSHVSKLFGAQKAVNDLNLNFQEGSFSVLIGTSGSGKSTTLKMINRLVEHDSGEIRFAGEEIRSLPVLELRRRMGYAIQSIGLFPHWSVAQNIATVPQLQKWSRARIDDRIDELMALLGLESNLRERYPHQLSGGQQQRVGVARALAADPQVLLMDEPFGALDPVTRGALQQEMTRIHRLLGRTIVLVTHDIDEALRLAEHLVLMDHGEVVQQGNPLTMLTRPANDFVRQFFGRSELGVRLLSLRSVADYVRREERADGEALAEEMTLRDALSLFVARGCEVLPVVNMQGQPCGTLHFQDLLVEA” the value was “soluble”. On to “MIEIESRELADIPVLHAYPVGQKDTPLPCVIFYHGFTSSSLVYSYFAVALAQAGLRVIMPDAPDHGSRFSGDEARRLNQFWQILLQSMQEFTTLRAAIAEENWLLDDRLAVGGASMGAMTALGITARHPTVKCTASMMGSGYFTSLARSLFPPLIPETAAQQNEFNKIVAPLAEWEATNHLEQLGDRPLLLWHGLDDDVVPADESLRLQQALSETGRDKLLTCSWQPGVRHRITPEALDAAVTFFRQHL”, for which the “soluble on expression in E. coli” value is “not soluble”.
